Test results published in IntAct's records for PubMed 23027862.

B1: Beta-1,3-galactosyl-O-glycosyl-glycoprotein beta-1,6-N-acetylglucosaminyltransferase (Homo sapiens), Q02742 (parent)
chain: MLRTLLRRRLFSYPTKYYFMVLVLSLITFSVLRIHQKPEFVSVRHLELAGENPSSDINCTKVLQGDVNEIQKVKLEILTVKFKKRPRWTPDDYINMTSDCSSFIKRRKYIVEPLSKEEAEFPIAYSIVVHHKIEMLDRLLRAIYMPQNFYCIHVDTKSEDSYLAAVMGIASCFSNVFVASRLESVVYASWSRVQADLNCMKDLYAMSANWKYLINLCGMDFPIKTNLEIVRKLKLLMGENNLETERMPSHKEERWKKRYEVVNGKLTNTGTVKMLPPLETPLFSGSAYFVVSREYVGYVLQNEKIQKLMEWAQDTYSPDEYLWATIQRIPEVPGSLPASHKYDLSDMQAVARFVKWQYFEGDVSKGAPYPPCDGVHVRSVCIFGAGDLNWMLRKHHLFANKFDVDVDLFAIQCLDEHLRHKALETLKH

Variants of: B1
Settings: with golp3_human GOLPH3, Q9H4A6
Chain of golp3_human GOLPH3, Q9H4A6 (Q9H4A6 whole entry): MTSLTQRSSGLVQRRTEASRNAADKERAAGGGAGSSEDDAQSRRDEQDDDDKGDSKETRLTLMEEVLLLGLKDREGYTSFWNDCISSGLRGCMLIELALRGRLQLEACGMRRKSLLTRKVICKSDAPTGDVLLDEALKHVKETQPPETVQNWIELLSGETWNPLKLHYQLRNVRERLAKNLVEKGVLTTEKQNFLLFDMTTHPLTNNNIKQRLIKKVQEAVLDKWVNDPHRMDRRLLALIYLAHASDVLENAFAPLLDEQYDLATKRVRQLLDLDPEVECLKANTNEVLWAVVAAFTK

effect of a mutation on the interaction | Variant
disrupting interaction strength | MLRTAARRRLFSYPTKYYFMVLVLSLITFSVLRIHQKPEFVSVRHLELAGENPSSDINCTKVLQGDVNEIQKVKLEILTVKFKKRPRWTPDDYINMTSDCSSFIKRRKYIVEPLSKEEAEFPIAYSIVVHHKIEMLDRLLRAIYMPQNFYCIHVDTKSEDSYLAAVMGIASCFSNVFVASRLESVVYASWSRVQADLNCMKDLYAMSANWKYLINLCGMDFPIKTNLEIVRKLKLLMGENNLETERMPSHKEERWKKRYEVVNGKLTNTGTVKMLPPLETPLFSGSAYFVVSREYVGYVLQNEKIQKLMEWAQDTYSPDEYLWATIQRIPEVPGSLPASHKYDLSDMQAVARFVKWQYFEGDVSKGAPYPPCDGVHVRSVCIFGAGDLNWMLRKHHLFANKFDVDVDLFAIQCLDEHLRHKALETLKH [L5A;L6A]

Variants of: B1
Settings: with golp3_human GOLPH3, Q9H4A6
Remark: another data set of the same source

effect of a mutation on the interaction | Variant
disrupting interaction strength | MLRTLLAAALFSYPTKYYFMVLVLSLITFSVLRIHQKPEFVSVRHLELAGENPSSDINCTKVLQGDVNEIQKVKLEILTVKFKKRPRWTPDDYINMTSDCSSFIKRRKYIVEPLSKEEAEFPIAYSIVVHHKIEMLDRLLRAIYMPQNFYCIHVDTKSEDSYLAAVMGIASCFSNVFVASRLESVVYASWSRVQADLNCMKDLYAMSANWKYLINLCGMDFPIKTNLEIVRKLKLLMGENNLETERMPSHKEERWKKRYEVVNGKLTNTGTVKMLPPLETPLFSGSAYFVVSREYVGYVLQNEKIQKLMEWAQDTYSPDEYLWATIQRIPEVPGSLPASHKYDLSDMQAVARFVKWQYFEGDVSKGAPYPPCDGVHVRSVCIFGAGDLNWMLRKHHLFANKFDVDVDLFAIQCLDEHLRHKALETLKH [R7A;R8A;R9A]
